Laboratory results: patent US20230293647A1 (AUTOLUS, published 2023)

What was measured:
Assay in all cases: cell microarray
IGF1 = IGF1 (human, UniProt P05019)
CD86 (cell microarray) = target: T1, CD86 (cell microarray) (human, UniProt P42081 24-329)
T1 sequence (looked up): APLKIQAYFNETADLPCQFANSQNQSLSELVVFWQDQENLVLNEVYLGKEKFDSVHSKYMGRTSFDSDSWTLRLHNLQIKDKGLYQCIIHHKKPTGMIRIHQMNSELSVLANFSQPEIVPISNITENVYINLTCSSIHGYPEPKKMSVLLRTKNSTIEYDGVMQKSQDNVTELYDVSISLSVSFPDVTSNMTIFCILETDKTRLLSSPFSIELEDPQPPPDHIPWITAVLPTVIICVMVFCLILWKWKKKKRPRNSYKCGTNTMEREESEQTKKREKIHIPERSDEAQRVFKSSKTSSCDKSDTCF

FcγRIa (cell microarray) = FcγRIa (cell microarray) (human, UniProt P12314 16-374)
Chain of FcγRIa (cell microarray) (P12314 16-374): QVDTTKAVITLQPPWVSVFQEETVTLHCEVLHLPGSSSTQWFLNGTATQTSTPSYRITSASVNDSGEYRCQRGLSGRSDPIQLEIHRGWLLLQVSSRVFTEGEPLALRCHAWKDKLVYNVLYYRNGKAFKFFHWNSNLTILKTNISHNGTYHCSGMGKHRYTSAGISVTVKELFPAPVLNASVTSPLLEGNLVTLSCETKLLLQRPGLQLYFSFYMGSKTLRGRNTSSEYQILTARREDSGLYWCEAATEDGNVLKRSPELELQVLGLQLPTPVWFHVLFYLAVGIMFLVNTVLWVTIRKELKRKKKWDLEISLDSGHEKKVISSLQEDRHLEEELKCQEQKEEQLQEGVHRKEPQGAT

SIGLEC14 = target: T2, SIGLEC14 (human, UniProt Q08ET2)
T2 sequence (looked up): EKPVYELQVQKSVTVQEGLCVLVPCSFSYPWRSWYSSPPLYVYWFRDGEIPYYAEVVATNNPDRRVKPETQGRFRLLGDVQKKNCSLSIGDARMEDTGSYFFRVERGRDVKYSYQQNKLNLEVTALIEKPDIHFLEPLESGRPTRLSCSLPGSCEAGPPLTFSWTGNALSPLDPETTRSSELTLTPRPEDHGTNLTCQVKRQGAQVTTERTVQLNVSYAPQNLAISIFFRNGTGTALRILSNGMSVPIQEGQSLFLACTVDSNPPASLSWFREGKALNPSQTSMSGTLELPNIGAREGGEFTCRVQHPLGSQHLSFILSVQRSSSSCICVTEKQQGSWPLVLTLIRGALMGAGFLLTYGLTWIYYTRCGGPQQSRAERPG

PRCD = target: T3, PRCD (human, UniProt Q00LT1)
T3 sequence (looked up): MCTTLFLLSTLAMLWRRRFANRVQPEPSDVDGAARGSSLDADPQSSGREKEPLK

SIGLEC15 = target: T4, SIGLEC15 (human, UniProt Q6ZMC9)
T4 sequence (looked up): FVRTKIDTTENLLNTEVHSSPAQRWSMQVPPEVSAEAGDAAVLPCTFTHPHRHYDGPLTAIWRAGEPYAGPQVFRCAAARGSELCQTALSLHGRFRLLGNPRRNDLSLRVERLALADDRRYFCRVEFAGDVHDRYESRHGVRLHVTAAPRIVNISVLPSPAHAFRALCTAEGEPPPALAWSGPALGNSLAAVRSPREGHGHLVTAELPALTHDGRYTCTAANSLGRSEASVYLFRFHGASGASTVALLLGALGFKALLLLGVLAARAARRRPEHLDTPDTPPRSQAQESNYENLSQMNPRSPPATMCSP

TTYH2 = target: T5, TTYH2 (human, UniProt Q9BSA4)
T5 sequence (looked up): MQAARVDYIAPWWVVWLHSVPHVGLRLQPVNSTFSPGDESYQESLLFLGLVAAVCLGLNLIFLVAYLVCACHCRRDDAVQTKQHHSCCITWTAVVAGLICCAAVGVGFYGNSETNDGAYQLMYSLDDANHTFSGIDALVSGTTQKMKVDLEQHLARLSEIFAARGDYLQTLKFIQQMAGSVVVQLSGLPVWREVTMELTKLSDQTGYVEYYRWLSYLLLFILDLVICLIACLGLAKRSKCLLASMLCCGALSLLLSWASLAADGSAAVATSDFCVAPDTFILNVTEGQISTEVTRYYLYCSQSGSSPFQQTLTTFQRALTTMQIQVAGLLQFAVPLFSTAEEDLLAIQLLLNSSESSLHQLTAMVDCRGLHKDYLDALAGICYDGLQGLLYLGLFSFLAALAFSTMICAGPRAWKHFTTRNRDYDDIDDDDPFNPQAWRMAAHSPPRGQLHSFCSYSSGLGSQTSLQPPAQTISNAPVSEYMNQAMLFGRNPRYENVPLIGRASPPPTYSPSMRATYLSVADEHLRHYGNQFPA

Measured: binding result

B1: Fc LALA-PG only construct with the ACE2 domain omitted (other)
chain: EPKSCDKTHTCPPCPAPEAAGGPSVFLFPPKPKDTLMISRTPEVTCVVVDVSHEDPEVKFNWYVDGVEVHNAKTKPREEQYNSTYRVVSVLTVLHQDWLNGKEYKCKVSNKALGAPIEKTISKAKGQPREPQVYTLPPSREEMTKNQVSLTCLVKGFYPSDIAVEWESNGQPENNYKTTPPVLDSDGSFFLYSKLTVDKSRWQQGNVFSCSVMHEALHNHYTQKSLSLSPGK
notes: also called control Fc (LALA-PG)
no binding: all assays above
